{"source": "patent US20220153864A1", "about": "(Pieris, published 2022)", "binders": {"B1": {"name": "fusion protein SEQ ID NOs: 87 and 82 (bispecific antibody, human IgG4 S228P, kappa, F234A L235A)", "heavy": "not shown", "light": "DVVMTQSPLSLPVTPGEPASISCRSSQSLVHSNRNTYLHWYLQKPGQSPQLLIYKVSNRFSGVPDRFSGSGSGTDFTLKISRVEAEDVGVYYCSQNTHVPPTFGQGTKLEIKRTVAAPSVFIFPPSDEQLKSGTASVVCLLNNFYPREAKVQWKVDNALQSGNSQESVTEQDSKDSTYSLSSTLTLSKADYEKHKVYACEVTHQGLSSPVTKSFNRGEC", "notes": "also called exemplary fusion protein"}}, "key": {"[1]": {"target": "T1, recombinant cynomolgus GPC3 (cyGPC3) (R&D Systems) (cynomolgus, UniProt A0A2K5VK50 24-558)", "test": "ELISA, cyGPC3 coated", "protocol": "(§1) Recombinant huGPC3 (R&D Systems) at the concentration of 1 μg/mL in PBS was coated overnight on microtiter plates at 4° C. After five washes with 100 μL PBS-0.05% T (PBS supplemented with 0.05% (v/v) Tween 20), the plates were blocked with 2% BSA (w/v) in PBS-0.1% T (PBS-0.1% T-2% BSA) for 1 h at room temperature. After washing with 100 μL PBS-0.05% T (PBS supplemented with 0.05% (v/v) Tween 20) five times, exemplary fusion proteins (SEQ ID NOs: 87 and […] and CD137Ac1-Fusion 1 to 7) or the GPC3 antibody as include in the fusion proteins (SEQ ID NOs: 81 and 82) at different concentrations were added to the wells and incubated for 1 h at room temperature, followed by another wash step. Bound molecules under study were detected by incubation with 1:5000 diluted anti-human IgG Fc-HRP (Jackson Laboratory) in PBS-0.1% T-2% BSA. After an additional wash step, fluorogenic HRP substrate (QuantaBlu, Thermo) was added to each well and the fluorescence intensity was detected using a fluorescence microplate reader.\n(§2) The same ELISA setup was also employed to determine the binding potency of fusion proteins to cynomolgus GPC3 and huCD137, where recombinant cyGPC3 (R&D Systems) or huCD137-His (recombinant human CD137 with C-terminal polyhistidine tag, R&D Systems) was instead coated on a microtiter plate. The testing agents were similarly titrated and bound agents were detected via anti-NGAL-HRP. […]"}, "[2]": {"target": "human CD137 expressed on cells (Flp-In-CHO::huCD137; NFkB-luc2/CD137 Jurkat cells) (human, UniProt Q07011 24-255)", "sequence (Q07011 24-255)": "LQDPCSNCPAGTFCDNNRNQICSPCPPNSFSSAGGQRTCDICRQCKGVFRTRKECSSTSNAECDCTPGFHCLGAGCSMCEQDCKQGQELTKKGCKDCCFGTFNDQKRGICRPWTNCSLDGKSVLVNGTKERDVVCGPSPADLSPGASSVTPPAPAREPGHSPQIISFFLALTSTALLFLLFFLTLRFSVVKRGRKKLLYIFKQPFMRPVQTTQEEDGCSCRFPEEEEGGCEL", "test": "cell-based or functional assay"}, "[3]": {"target": "T2, huCD137-His (recombinant human CD137 with C-terminal polyhistidine tag, R&D Systems) (human, UniProt Q07011 24-186)", "T2 construct": "also called biotinylated huCD137-His; not shown: C-terminal polyhistidine tag", "test": "ELISA, huCD137-His coated, detection anti-NGAL-HRP", "protocol": "as §1, §2"}, "[4]": {"target": "T3, recombinant human GPC3 (huGPC3) (R&D Systems) (human, UniProt P51654 25-559)", "T3 construct": "also called biotinylated huGPC3", "T3 sequence (P51654 25-559 limits assumed)": "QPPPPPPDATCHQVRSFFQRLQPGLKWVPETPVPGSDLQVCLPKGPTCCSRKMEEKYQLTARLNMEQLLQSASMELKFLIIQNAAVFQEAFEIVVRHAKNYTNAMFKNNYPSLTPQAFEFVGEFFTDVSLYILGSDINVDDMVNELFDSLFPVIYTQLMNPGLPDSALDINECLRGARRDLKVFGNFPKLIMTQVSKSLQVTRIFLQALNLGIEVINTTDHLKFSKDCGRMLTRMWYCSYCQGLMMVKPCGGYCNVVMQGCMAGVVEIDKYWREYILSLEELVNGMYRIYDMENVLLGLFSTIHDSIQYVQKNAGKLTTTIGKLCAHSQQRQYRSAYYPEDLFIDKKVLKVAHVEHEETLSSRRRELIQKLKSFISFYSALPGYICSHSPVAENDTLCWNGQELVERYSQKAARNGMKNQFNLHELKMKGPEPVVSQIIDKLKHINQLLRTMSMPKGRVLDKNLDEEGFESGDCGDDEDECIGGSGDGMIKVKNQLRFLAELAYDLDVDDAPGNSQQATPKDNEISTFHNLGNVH", "test": "ELISA, huGPC3 coated, detection anti-human IgG Fc-HRP", "protocol": "as §1\nExemplary results are depicted in FIG. 2A-2D, together with the fit curves resulting from a 1:1 binding sigmoidal fit, where the EC₅₀ value and the maximum signal were free parameters, and the slope was fixed to unity."}, "[5]": {"target": "T4, human GPC3 expressed on cells (SK-Hep1::huGPC3; HepG2, Hep3B and MKN-45 tumor cells) (human, UniProt P51654 25-554)", "T4 construct": "whole, on cells; also called GPC3-positive tumor cells; human GPC3-expressing cells", "T4 sequence (P51654 25-554 limits assumed)": "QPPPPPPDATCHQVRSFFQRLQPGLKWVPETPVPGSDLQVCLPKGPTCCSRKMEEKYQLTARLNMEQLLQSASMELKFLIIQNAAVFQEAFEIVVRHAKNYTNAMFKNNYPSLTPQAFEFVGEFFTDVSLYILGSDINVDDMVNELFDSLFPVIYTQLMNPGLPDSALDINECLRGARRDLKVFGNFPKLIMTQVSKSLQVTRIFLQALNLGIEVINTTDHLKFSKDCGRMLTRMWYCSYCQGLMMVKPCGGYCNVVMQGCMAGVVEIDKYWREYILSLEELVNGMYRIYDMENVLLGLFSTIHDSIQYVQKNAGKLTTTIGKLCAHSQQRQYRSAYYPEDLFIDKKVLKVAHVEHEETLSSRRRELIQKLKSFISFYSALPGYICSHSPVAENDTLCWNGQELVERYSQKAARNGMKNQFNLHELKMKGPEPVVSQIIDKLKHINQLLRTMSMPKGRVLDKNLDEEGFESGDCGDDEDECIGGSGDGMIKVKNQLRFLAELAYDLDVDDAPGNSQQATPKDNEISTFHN", "test": "flow cytometry on SK-Hep1::huGPC3 cells, anti-human IgG detection", "protocol": "(§3) For flow cytometric analysis, respective cell lines were incubated with an exemplary fusion protein (SEQ ID NOs: 87 and 82), the GPC3 antibody or the CD137 specific lipocalin mutein (Fc fusion) as included in the fusion protein (SEQ ID NOs: 81 and 82 and SEQ ID NO: 98, respectively), a reference CD137 antibody SEQ ID NOs: 26 and 27, or an isotype control (SEQ ID NOs: 24 and 25) and detected using a fluorescently labeled anti-human IgG antibody in FACS analysis as described in the following:\n(§4) 5×10⁴ cells per well were incubated for 1 h in ice-cold PBS containing 5% fetal calf serum (PBS-FCS). A dilution series of the testing molecule were added to the cells and incubated for 1 h on ice. Cells were washed twice with PBS and then incubated with a goat anti-hlgG Alexa647-labeled antibody or goat anti-hlgG Alexa488-labeled antibody for 30 min on ice. Cells were subsequently washed and analyzed using iQue Flow cytometer (Intellicyte Screener). Mean geometric fluorescent signals were plotted and fitted with Graphpad software. The geometric means of the fluorescence intensity were used to calculate EC₅₀ values using a four-parameter logistic regression with bottom fixed to background."}, "[6]": {"target": "T1, recombinant cynomolgus GPC3 (cyGPC3) …", "test": "SPR (Biacore T200), binder captured by anti-human IgG Fc, cyGPC3 as analyte, 1:1 model", "protocol": "The anti-human IgG Fc antibody (GE Healthcare) was immobilized on a CM5 sensor chip using standard amine chemistry: the carboxyl groups on the chip were activated using 1-ethyl-3-(3-dimethylaminopropyl)-carbodiimide (EDC) and N-hydroxysuccinimide (NHS). Subsequently, anti-human IgG Fc antibody solution (GE Healthcare) at a concentration of 25 μg/mL in 10 mM sodium acetate (pH 5.0) was applied at a flow rate of 5 μL/min until an immobilization level of 6000-10000 resonance units (RU) was achieved. Residual non-reacted NHS-esters were blocked by passing a solution of 1M ethanolamine across the surface. The reference channel was treated in an analogous manner. Subsequently, testing fusion proteins (SEQ ID NOs: 87 and 82 and CD137Ac1-Fusion 1) or the GPC3 antibody as included in the fusion protein (SEQ ID NOs: 81 and 82) at 0.2 μg/ml in HBS-EP+ buffer was captured by the anti-human IgG-Fc antibody at the chip surface for 180 s at a flow rate of 10 μL/min. After each capture step, the needle was washed.\nThe binding assay was carried out with a contact time of 180 s, a dissociation time of 900 s, and a flow rate of 30 μL/min. After each injection, the needle was cleaned with 40 mM NaOH+20% isopropanol. All measurements were performed at 25° C. […] Prior to the protein measurements, three startup cycles were performed for conditioning purposes. Data were evaluated with Biacore T200 Evaluation software (v2.0). Double referencing was used and the 1:1 binding model was used to fit the raw data."}, "[7]": {"target": "T4, human GPC3 expressed on cells …", "test": "flow cytometry, SK-Hep1 cells transfected with human GPC3, detection labelled anti-human IgG, GeoMean RL1-H [upper graph]", "protocol": "as §3, §4"}}, "data": [{"binder": "B1", "values": [{"measurement": "EC50", "setting": "[1]", "result": 340, "unit": "pM"}, {"measurement": "EC50, CD137 Bioassay (NFkB-luc2/CD137 Jurkat cells co-cultured with Hep3B)", "setting": "[2]", "result": 780, "unit": "pM"}, {"measurement": "EC50, CD137 Bioassay (NFkB-luc2/CD137 Jurkat cells co-cultured with HepG2)", "setting": "[2]", "result": 380, "unit": "pM"}, {"measurement": "EC50", "setting": "[3]", "result": 520, "unit": "pM"}, {"measurement": "EC50", "setting": "[4]", "result": 190, "unit": "pM"}, {"measurement": "EC50", "setting": "[5]", "result": 23200, "unit": "pM"}, {"measurement": "Kd", "setting": "[6]", "result": 936, "unit": "pM"}, {"measurement": "koff", "setting": "[6]", "result": 0.000275, "unit": "s⁻¹"}, {"measurement": "kon", "setting": "[6]", "result": 293000, "unit": "M⁻¹ s⁻¹"}, {"measurement": "EC50 (read off the curve)", "setting": "[7]", "result": "~5000", "unit": "pM"}]}]}
